Source: paper PMC2940226 (Neurobiology of disease, 2010)

Target: GABAA receptor γ2 subunit (rat (endogenous in hippocampus), UniProt P18508 39-466)
Assay: co-IP

GABAA receptor γ2 subunit, sequence (P18508 39-466): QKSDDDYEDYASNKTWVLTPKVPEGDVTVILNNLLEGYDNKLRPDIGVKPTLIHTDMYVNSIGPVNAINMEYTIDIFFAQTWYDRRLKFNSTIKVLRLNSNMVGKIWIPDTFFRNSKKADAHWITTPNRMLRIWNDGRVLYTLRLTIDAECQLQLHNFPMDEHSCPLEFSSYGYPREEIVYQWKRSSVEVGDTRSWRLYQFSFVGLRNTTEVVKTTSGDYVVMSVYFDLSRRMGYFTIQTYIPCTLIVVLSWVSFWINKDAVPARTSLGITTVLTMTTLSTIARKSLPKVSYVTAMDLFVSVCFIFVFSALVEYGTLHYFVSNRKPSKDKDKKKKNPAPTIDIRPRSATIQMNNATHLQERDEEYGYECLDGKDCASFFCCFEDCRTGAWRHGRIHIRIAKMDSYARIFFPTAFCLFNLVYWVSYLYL

B1: GABAA receptor α4 subunit (natural protein, rat (endogenous in hippocampus), UniProt P28471 36-552, looked up)
chain: QNSKDEKLCPENFTRILDSLLDGYDNRLRPGFGGPVTEVKTDIYVTSFGPVSDVEMEYTMDVFFRQTWIDKRLKYDGPIEILRLNNMMVTKVWTPDTFFRNGKKSVSHNMTAPNKLFRIMRNGTILYTMRLTISAECPMRLVDFPMDGHACPLKFGSYAYPKSEMIYTWTKGPEKSVEVPKESSSLVQYDLIGQTVSSETIKSITGEYIVMTVYFHLRRKMGYFMIQTYIPCIMTVILSQVSFWINKESVPARTVFGITTVLTMTTLSISARHSLPKVSYATAMDWFIAVCFAFVFSALIEFAAVNYFTNIQMQKAKKKISKPPPEVPAAPVLKEKHTETSLQNTHANLNMRKRTNALVHSESDVNSRTEVGNHSSKTTAAQESSETTPKAHLASSPNPFSRANAAETISAAARGLSSAASPSPHGTLQPAPLRSASARPAFGARLGRIKTTVNTTGVPGNVSATPPPSAPPPSGSGTSKIDKYARILFPVTFGAFNMVYWVVYLSKDTMEKSESLM
How did the “ratio of the α4-γ2 co-precipitation (normalised α4 to γ2), control animals” value turn out when B1 was run?
Its value is 0.55 ± 0.02.

What about the “ratio of the α4-γ2 co-precipitation (normalised α4 to γ2), epileptic animals” value of the same binder?
Its value is 1.12 ± 0.24.
